Results on one molecule are retold here after patent US20150329614A1 (Novartis, published 2015).

This experiment addresses T1, rec. human IGF-1R (R&D Systems, 391-GR) (human, UniProt P08069 31-932).
T1 construct: Bought soluble protein, used as the analyte in SPR; also called rhIGF1R; recombinant human IGF-1R
The experiment is described as follows: SPR (Biacore T200), ligand immobilised on CM5 chip, rec. human IGF-1R as analyte, 1:1 model. (In general: Surface plasmon resonance follows binding to a sensor surface in real time, without labels.)

T1 sequence (P08069 31-932 limits assumed): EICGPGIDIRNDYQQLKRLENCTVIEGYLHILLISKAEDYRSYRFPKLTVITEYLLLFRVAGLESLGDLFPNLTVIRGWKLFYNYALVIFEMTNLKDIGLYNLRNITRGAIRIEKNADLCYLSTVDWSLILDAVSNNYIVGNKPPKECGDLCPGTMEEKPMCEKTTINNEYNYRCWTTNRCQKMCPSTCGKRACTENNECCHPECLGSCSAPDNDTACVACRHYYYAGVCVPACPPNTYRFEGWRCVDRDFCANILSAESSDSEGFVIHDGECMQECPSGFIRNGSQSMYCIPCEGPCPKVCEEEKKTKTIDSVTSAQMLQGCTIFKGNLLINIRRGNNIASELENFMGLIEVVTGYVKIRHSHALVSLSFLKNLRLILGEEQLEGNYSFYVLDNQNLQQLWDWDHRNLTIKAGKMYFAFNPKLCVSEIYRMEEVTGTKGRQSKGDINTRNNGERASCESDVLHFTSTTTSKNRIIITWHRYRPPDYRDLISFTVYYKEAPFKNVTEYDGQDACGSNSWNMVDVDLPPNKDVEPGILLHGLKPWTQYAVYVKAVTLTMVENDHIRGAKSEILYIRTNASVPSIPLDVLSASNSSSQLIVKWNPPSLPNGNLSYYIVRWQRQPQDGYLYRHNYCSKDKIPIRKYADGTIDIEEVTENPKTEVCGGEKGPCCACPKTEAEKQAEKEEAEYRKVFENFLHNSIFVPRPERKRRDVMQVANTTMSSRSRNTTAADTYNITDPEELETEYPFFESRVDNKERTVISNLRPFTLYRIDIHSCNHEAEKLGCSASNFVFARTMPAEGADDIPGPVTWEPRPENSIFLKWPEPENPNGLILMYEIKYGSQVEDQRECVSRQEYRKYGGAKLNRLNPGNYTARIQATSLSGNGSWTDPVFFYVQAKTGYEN
Description: The binding properties were characterized by SPR using a Biacore T200 instrument at 25° C. […] The analyte concentration ranges were adapted to the individual interaction and ranged from 1000-3.9 nM (IGF-1R). […] Kinetic rate constants and KD were calculated by fitting double-referenced sensorgrams to a 1:1 binding model.
A direct binding assay was performed. […] The resulting sensorgrams were fitted to a 1:1 interaction model to calculate the equilibrium dissociation constants (KD).

B1: hIGF-1-Ea-Fc_mut 13/2_A (Fc fusion)
chain: TLCGAELVDALQFVCGDRGFYFNKPTGYGSSSQAAPQTSIVDECCFRSCDLRRLEMYCAPLKPAVQAQQHTDMPKTQKEVHLKNASRGSAGNKNYQMCPPCPAPEAAGGPSVFLFPPKPKDTLMISRTPEVTCVVVDVSHEDPEVKFNWYVDGVEVHNAKTKPREEQYNSTYRVVSVLTVLHQDWLNGKEYKCKVSNKALPAPIEKTISKAKGQPREPQVYTLPPSREEMTKNQVSLTCLVKGFYPSDIAVEWESNGQPENNYKTTPPVLDSDGSFFLYSKLTVDKSRWQQGNVFSCSVMHEALHNHYTQKSLSLSPGK
notes: Modified human IGF-1-Ea precursor joined by hinge 1 to a hIgG1 LALA Fc
Regarding B1, the binding result was “binds”.
